Laboratory results: patent publication US20220152154A1, “GROWTH DIFFERENTIATION FACTOR 15 COMBINATION THERAPY” (Amgen Inc., priority 2019, published 2022)

Assays:
[1] = Body weight change in DIO mice treated for 5 weeks; format: in vivo; design: key to Significance of Body Weight Change: ns: not significant; *: p < 0.05; **: p < 0.005; ***: p < 0.001; ****: p < 0.0001; settings: subcutaneous; for Significance of Body Weight Change: male C57Bl/6 DIO mice, 2-way ANOVA with Dunnett's analysis; for change in body weight: DIO mice
Procedure: (§1) Male C57Bl/6 DIO mice, 19-20 weeks old (13-14 weeks on high fat diet) at beginning of dosing, were placed into the following treatment groups: Group A—Vehicle, in which the animals were administered vehicle weekly; Group B—Dulaglutide, in which the animals were administered 0.1 mg/kg (2 nmol/kg) of dulaglutide twice per week; Group C—GIPR Ab, in which the animals were administered 5 mg/kg (33 nmol/kg) of antibody 2.63.1 (having a light and heavy chain sequence of SEQ ID NOs: 105 and 106, respectively) weekly and vehicle weekly (the latter being on the alternate dulaglutide dosing day); Group D—GDF15, in which the animals were administered 0.125 mg/kg (1 nmol/kg) of FcΔ10(−)-(G4S)4-GDF15 (SEQ ID NO: 39) (along with its heterodimerization partner, FcΔ10(+,K) (SEQ ID NO: 32)) weekly and vehicle weekly (the latter on the alternate dulaglutide dosing day); Group E—GDF15+Dulaglutide, in which the animals were administered 0.125 mg/kg (1 nmol/kg) of FcΔ10(−)-(G4S)4-GDF15) (along with its heterodimerization partner, FcΔ10(+,K)) weekly and 0.1 mg/kg (2 nmol/kg) of dulaglutide twice per week; Group F—GDF15+GIPR Ab, in which the animals were administered 0.125 mg/kg (1 nmol/kg) of FcΔ10(−)-(G4S)4-GDF15 (along with its heterodimerization partner, FcΔ10(+,K)) weekly and 5 mg/kg (33 nmol/kg) of antibody 2.63.1 weekly. The animals were dosed for 5 weeks with through subcutaneous injection.
Body weight was measured twice per week.

[2] = Food intake measured three consecutive days per week; format: in vivo; design: key: ns: not significant; *: p < 0.05; **: p < 0.005; ***: p < 0.001; ****: p < 0.0001; settings: male C57Bl/6 DIO mice, 2-way ANOVA with Dunnett's analysis
Procedure: as §1

B1: GIPR Ab: GIPR antibody 2.63.1 having a light and heavy chain sequence of SEQ ID NOs: 105 and 106 (antibody)
heavy: MGWSYIILFLVATATDVHSQVQLQQPGAELVKPGASVKLSCRASGYTFTSNWMHWVKQRPRQGLEWIGEINPSNGRSNYNEKFKTKATLTVDKSSSTAYMQLSSLTSEDSAVYYCARFYYGTSWFAYWGQGTLVAVSAAKTTPPSVYPLAPGSAAQTNSMVTLGCLVKGYFPEPVTVTWNSGSLSSGVHTFPAVLQSDLYTLSSSVTVPSSTWPSETVTCNVAHPASSTKVDKKIVPRDCGCKPCICTVPEVSSVFIFPPKPKDVLTITLTPKVTCVVVDISKDDPEVQFSWFVDDVEVHTAQTQPREEQFASTFRSVSELPIMHQDWLNGKEFKCRVNSAAFPAPIEKTISKTKGRPKAPQVYTIPPPKEQMAKDKVSLTCMITDFFPEDITVEWQWNGQPAENYKNTQPIMDTDGSYFVYSKLNVQKSNWEAGNTFTCSVLHEGLHNHHTEKSLSHSPGK
light: MKLPVRLLVLMFWIPASSSDVVMTQTPLSLPVSLGDQASISCRSSQSLVHSNGDTYLHWYLQKPGQSPKLLIYKVSNRFSGVPDRFSGSGSGTDFTLKISRVEAADLGVYFCSQSTHVPPFTFGGGTKLEIKRADAAPTVSIFPPSSEQLTSGGASVVCFLNNFYPKDINVKWKIDGSERQNGVLNSWTDQDSKDSTYSMSSTLTLTKDEYERHNSYTCEATHKTSTSPIVKSFNRNEC
Significance of Body Weight Change ([1]; D0): ns | Significance of Body Weight Change ([1]; D3): ns | Significance of Body Weight Change ([1]; D7): ns | Significance of Body Weight Change ([1]; D10): ns | Significance of Body Weight Change ([1]; D14): ns | Significance of Body Weight Change ([1]; D17): ns | Significance of Body Weight Change ([1]; D21): ns | Significance of Body Weight Change ([1]; D31): ns | Significance of Body Weight Change ([1]; D35): ns | Significance of Body Weight Change ([1]; D-4): ns | change in body weight ([1]; five weeks after treatment): 2.24% | change in body weight ([1]; two weeks after treatment): −0.91% | Significance of Food Intake Assay ([2]; D2): ns | Significance of Food Intake Assay ([2]; D8): ns | Significance of Food Intake Assay ([2]; D9): ns | Significance of Food Intake Assay ([2]; D10): ns | Significance of Food Intake Assay ([2]; D15): ns | Significance of Food Intake Assay ([2]; D16): ns | Significance of Food Intake Assay ([2]; D17): ns | Significance of Food Intake Assay ([2]; D22): * (p < 0.05) | Significance of Food Intake Assay ([2]; D23): ns | Significance of Food Intake Assay ([2]; D24): ns | Significance of Food Intake Assay ([2]; D29): ns | Significance of Food Intake Assay ([2]; D30): ns | Significance of Food Intake Assay ([2]; D31): ns
